Measurements: patent publication US6828106B2, “Methods and compositions using coiled binding partners” (Cyclacel Limited, priority 1999, dated 2004)

Columns and labels:
TEV protease [1] = target: T1, TEV protease (Tobacco etch virus, UniProt P04517); experiment: TEV protease FP assay with homodimer-forming reporter peptide; type: biochemical; conditions: substrate: fluorescein/biotin-labeled reporter peptide homodimer; FIG. 10; read-out: Km of TEV protease by FP analysis
T1 construct: Proteolytic cleavage was initiated by the addition of TEV protease (20U, Gibco Life Technologies); histidine tag; purchased Gibco Life Technologies
Experimental: (§1) TEV protease activity and inhibition of TEV protease activity was determined by using a peptide capable of forming a homodimer, wherein homodimer formation is decreased following TEV protease cleavage of the peptide, according to the following method.
For FP analysis the reporter peptide (sequence recited above) was labeled with fluorescein or with biotin. The labeled peptides were incubated at a total peptide concentration of 6 μM (6:1 ratio, biotin:F) in 50 mM Tris, pH 8, 0.5 mM EDTA, 0.1 mg/ml BSA and 1 mM DTT at 30° C. for 5 minutes in a total volume of 100 μl. Proteolytic cleavage was initiated by the addition of TEV protease (20U), and monitored during the reaction time course by measuring the polarization of fluorescein (excitation 485 nm, emission 520 nm) over time. Initial rates of change of fluorescein polarization were determined for the linear portion of the reaction.
(§2) The activity of the TEV protease inhibitor iodacetamide was determined by FRET or FP assays performed as described above in the absence of iodacetamide or in the presence of 0.05-100 mM iodacetamide added prior to the addition of TEV protease. The results of these experiments are presented in FIG. 9 (FRET assay) and FIG. 11 (FP assay).

TEV protease [2] = target: T1, TEV protease; experiment: TEV protease FRET assay with homodimer-forming reporter peptide; type: biochemical; conditions: substrate: fluorescein/rhodamine-labeled reporter peptide homodimer; FIG. 8; read-out: Km of TEV protease by FRET analysis
Experimental: as §1
For FRET analysis the reporter peptide (KGR MRCLEDR VENLYSQ SYHLENE VARLRRL VGELAAK) (SEQ ID NO: 32) was labeled with fluorescein or rhodamine. The labeled peptides were incubated at a total peptide concentration of 6 μM (6:1 ratio, R:F) in 50 mM Tris pH 8, and 0.5 mM EDTA, and 1 mM DTT at 30° C. for 15 minutes in a total volume of 100 μl. Proteolytic cleavage was initiated by the addition of TEV protease (20U, Gibco Life Technologies), and monitored during the time course of the reaction by measuring the emission of fluorescein (excitation 485 nm, emission 520 nm) over time. Initial rates of change of fluorescein emission were determined for the linear portion of the reaction.
as §2

B1: TEV protease: Tobacco Etch Virus protease, Gibco Life Technologies (protein)
chain: GESLFKGPRDYNPISSTICHLTNESDGHTTSLYGIGFGPFIITNKHLFRRNNGTLLVQSLHGVFKVKNTTTLQQHLIDGRDMIIIRMPKDFPPFPQKLKFREPQREERICLVTTNFQTKSMSSMVSDTSCTFPSSDGIFWKHWIQTKDGQCGSPLVSTRDGFIVGIHSASNFTNTNNYFTSVPKNFMELLTNQEAQQWVSGWRLNADSVLWGGHKVFMSKPEEPFQPVKEATQLMNELVYSQ
In the case of B1, the Km (TEV protease [1]) is reported as 36 µM and the Km (TEV protease [2]) is reported as 36 µM.
